The results in this text go back to patent US20210008109A1, “METHODS OF TREATING HEMATOLOGICAL DISORDERS, SOLID TUMORS, OR INFECTIOUS DISEASES USING NATURAL KILLER CELLS” (CELGENE CORPORATION, priority 2014, published 2021).

The series deals with Daudi cells. The series is described as follows: Antibody-dependent cellular cytotoxicity (ADCC) of PiNK cells with rituximab, PKH26/TO-PRO-3 FACS. It counts as cell-based. The following applies: Daudi cells pre-incubated 1 h with rituximab, compared to human IgG isotype control; E:T 50:1, 20:1, 10:1 and 2.5:1; 4 h at 37° C. On the procedure:
The experiments presented herein utilize an anti-CD20 antibody, rituximab, and Daudi cells (Cat #: CCL-213, ATCC), which are high expressers of CD20. Daudi cells were harvested and labeled with PKH26 (Cat #: PKH26GL-1KT, Sigma-Aldrich) (Ferlazzo, G., et al., J Immunol, 172: 1455-1462 (2004); Lehmann, D., et al., Stem Cells Dev, 21: 2926-2938 (2012)), whose lipophilic aliphatic residue inserts into cell plasma membrane. The cells were washed and incubated with rituximab (and human IgG as an isotype control) at different concentrations as indicated in FIG. 1 for 1 h at room temperature. After washing three times, 10^4 target cells were placed in 96-well U-bottom tissue culture plates and incubated with cultured NK cells at various effector-target (E:T) ratios (50:1, 20:1, 10:1 and 2.5:1) in 200 μl RPMI 1640 supplemented with 10% FBS. The Cultures were incubated for 4 h at 37° C. in 5% CO2. After incubation, cells were harvested and TO-PRO-3 (Catalog #T3605, Invitrogen), a membrane-impermeable DNA stain, was added to cultures to 0.25 μM final concentration followed by FACS analysis using BD FACSCanto II. Cytotoxicity (“% cytotoxicity” in FIG. 1) is expressed as percentage of dead cells (PKH26^+TO-PRO-3^+) within the total PKH26^+ target tumor cells, subtracted by spontaneous cell death.

On to rituximab, for which the “% cytotoxicity of PiNK cells (dead PKH26+TO-PRO-3+ cells within total PKH26+ target cells, minus spontaneous cell death)” value was “increases the cytotoxicity”.
